Measured values: patent US20230272114A1
pKd: −log10 of the molar value.

Key:
Assay in all cases: Biacore SPR
human FcγRI (human) = human FcγRI (human) (UniProt P12314)
[1] = biological target: human V158 FcγRIIIa (human) (UniProt P08637)
[2] = biological target: human H131 FcγRIIa (human) (UniProt P12318)
[3] = biological target: recombinant human FcγRIIb protein (R&D Systems) (human) (UniProt P31994)
Chain of recombinant human FcγRIIb protein (R&D Systems) (human) (P31994 46-217): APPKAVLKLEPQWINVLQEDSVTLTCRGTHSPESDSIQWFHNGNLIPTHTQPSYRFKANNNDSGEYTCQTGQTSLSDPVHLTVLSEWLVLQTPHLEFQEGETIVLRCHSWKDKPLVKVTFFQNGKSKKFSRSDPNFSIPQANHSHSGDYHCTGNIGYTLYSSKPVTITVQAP

Chain of human FcγRI (human) (P12314 16-288): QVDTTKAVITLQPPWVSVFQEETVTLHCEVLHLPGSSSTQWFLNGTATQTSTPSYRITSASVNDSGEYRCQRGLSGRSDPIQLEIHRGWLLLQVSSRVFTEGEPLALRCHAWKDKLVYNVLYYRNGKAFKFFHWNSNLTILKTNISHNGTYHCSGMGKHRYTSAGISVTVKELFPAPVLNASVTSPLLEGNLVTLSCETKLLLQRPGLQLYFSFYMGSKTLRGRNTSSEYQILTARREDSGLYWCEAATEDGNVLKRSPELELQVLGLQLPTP

anti-CD19 antibody HuAM4G7 IgG1 Fc variant S239D/S267E
pKd (human FcγRI (human)): 9.77 | pKd [1]: 7.21 | pKd [2]: 6.15 | pKd [3]: 7.92
